# Results: patent publication US20150203577A1 (Chugai, published 2015)
# Where a chain is given by its changes, count along the chain named. Names may count otherwise.
# B1: H237-MB302/MRAL-k0 (antibody, mouse IgG1, kappa)
# heavy: QVQLQESGPGLVKPSETLSLTCAVSGHSISHDHAWSWVRQPPGEGLEWIGFISYSGITNYNPSLQGRVTISRDNSKNTLYLQMNSLRAEDTAVYYCARSLARTTAMDYWGEGTLVTVSSAKTTPPSVYPLAPGSAAQTNSMVTLGCLVKGYFPEPVTVTWNSGSLSSGVHTFPAVLQSDLYTLSSSVTVPSSTWPSETVTCNVAHPASSTKVDKKIVPRDCGCKPCICEVPEVEDVFIFPPKPKDVLTITLTPKVTCVVVDISKDDPEVQFSWFVDDVEVHTAQTQPREEQFNSTFRSVSELPIMHQDWLNGKEFKCRVNSAAFPAPIEKTISKTKGRPKAPQVYTIPPPKEQMAKDKVSLTCMITDFFPEDITVEWQWNGQPAENYKNTQPIMDTDGSYFVYSKLNVQKSNWEAGNTFTCSVLHEGLHNHHTEKSLSHSPGK
# light: not shown
# notes: copies: 2 + 2
# B2: H237-MB383/MRAL-k0 (antibody, mouse IgG1, kappa)
# heavy: B1 heavy with V230N
# light: not shown
# notes: copies: 2 + 2
# B3: H237-MB306/MRAL-k0 (antibody, mouse IgG1, kappa)
# heavy: B1 heavy with E229T, V230A
# light: not shown
# notes: copies: 2 + 2
# B4: H237-MB318/MRAL-k0 (antibody, mouse IgG1, kappa)
# heavy: B1 heavy with P231E
# light: not shown
# notes: copies: 2 + 2
# B5: H237-MB380/MRAL-k0 (antibody, mouse IgG1, kappa)
# heavy: B1 heavy with V230D, P231A
# light: not shown
# notes: copies: 2 + 2
# B6: H237-MB322/MRAL-k0 (antibody, mouse IgG1, kappa)
# heavy: B1 heavy with V230D, P231E
# light: not shown
# notes: copies: 2 + 2
# B7: H237-MB310/MRAL-k0 (antibody, mouse IgG1, kappa)
# heavy: B1 heavy with E229T, V230D
# light: not shown
# notes: copies: 2 + 2
# B8: H237-MB313/MRAL-k0 (antibody, mouse IgG1, kappa)
# heavy: B1 heavy with E229T, P231E
# light: not shown
# notes: copies: 2 + 2
# B9: H237-MB378/MRAL-k0 (antibody, mouse IgG1, kappa)
# heavy: B1 heavy with P231N
# light: not shown
# notes: copies: 2 + 2
# B10: H237-MB381/MRAL-k0 (antibody, mouse IgG1, kappa)
# heavy: B1 heavy with V230D, P231N
# light: not shown
# notes: copies: 2 + 2
# B11: H237-MB391/MRAL-k0 (antibody, mouse IgG1, kappa)
# heavy: B1 heavy with V230P, P231W
# light: not shown
# notes: copies: 2 + 2
# B12: H237-MB337/MRAL-k0 (antibody, mouse IgG1, kappa)
# heavy: B1 heavy with V230A
# light: not shown
# notes: copies: 2 + 2
# B13: H237-MB377/MRAL-k0 (antibody, mouse IgG1, kappa)
# heavy: B1 heavy with P231A
# light: not shown
# notes: copies: 2 + 2
# B14: H237-MB339/MRAL-k0 (antibody, mouse IgG1, kappa)
# heavy: B1 heavy with P231W
# light: not shown
# notes: copies: 2 + 2
# B15: H237-MB384/MRAL-k0 (antibody, mouse IgG1, kappa)
# heavy: B1 heavy with V230N, P231A
# light: not shown
# notes: copies: 2 + 2
# B16: H237-MB358/MRAL-k0 (antibody, mouse IgG1, kappa)
# heavy: B1 heavy with V230A, P231A
# light: not shown
# notes: copies: 2 + 2
# B17: H237-MB388/MRAL-k0 (antibody, mouse IgG1, kappa)
# heavy: B1 heavy with V230P
# light: not shown
# notes: copies: 2 + 2
# B18: H237-MB367/MRAL-k0 (antibody, mouse IgG1, kappa)
# heavy: B1 heavy with V230A, P231N
# light: not shown
# notes: mIgG1 with T230E/V231A/P232N/S238E/S239D (EU); copies: 2 + 2
# B19: H237-MB340/MRAL-k0 (antibody, mouse IgG1, kappa)
# heavy: B1 heavy with V230A, P231W
# light: not shown
# notes: copies: 2 + 2
# B20: H237-MB341/MRAL-k0 (antibody, mouse IgG1, kappa)
# heavy: B1 heavy with V230D, P231W
# light: not shown
# notes: copies: 2 + 2
# B21: H237-MB338/MRAL-k0 (antibody, mouse IgG1, kappa)
# heavy: B1 heavy with V230D
# light: not shown
# notes: copies: 2 + 2
# B22: H237-MB319/MRAL-k0 (antibody, mouse IgG1, kappa)
# heavy: B1 heavy with V230A, P231E
# light: not shown
# notes: copies: 2 + 2
# B23: H237-MB385/MRAL-k0 (antibody, mouse IgG1, kappa)
# heavy: B1 heavy with V230N, P231N
# light: not shown
# notes: copies: 2 + 2
# B24: H237-MB386/MRAL-k0 (antibody, mouse IgG1, kappa)
# heavy: B1 heavy with V230N, P231W
# light: not shown
# notes: copies: 2 + 2
# Biological target: T1, mouse FcγRII extracellular domain with C-terminal His tag (mouse, UniProt P08101 30-210)
# T1 construct: Made on the basis of NCBI NP-034317.1; also called mFcγRII; mFcgRII
# T1 sequence: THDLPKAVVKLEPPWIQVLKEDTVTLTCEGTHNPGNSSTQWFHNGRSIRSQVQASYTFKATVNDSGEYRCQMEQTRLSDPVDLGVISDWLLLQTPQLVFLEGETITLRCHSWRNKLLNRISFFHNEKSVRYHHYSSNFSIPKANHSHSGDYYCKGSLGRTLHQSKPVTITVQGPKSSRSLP
# Experiment: SPR Biacore T200
# Protocol: (§1) Each altered antibody was analyzed for its interaction with each Fcγ receptor prepared above using Biacore T100 (GE Healthcare Japan Corp.), Biacore T200 (GE Healthcare Japan Corp.), Biacore A100, or Biacore 4000. The running buffer used was HBS-EP+ (GE Healthcare Japan Corp.). The assay temperature was set to 25° C. The sensor chips used were chips prepared by immobilizing Protein L (ACTIGEN or BioVision) onto Series S Sensor Chip CM5 (GE Healthcare Japan Corp.) or Series S Sensor Chip CM4 (GE Healthcare Japan Corp.) by the amine coupling method.
# (§2) In order to calculate the KD value of each altered antibody for FcγR, kinetic analysis was conducted according to the following method: first, the antibody of interest was captured onto any of these chips and allowed to interact with mFcγR diluted with a running buffer. For the obtained sensorgram, the assay results were globally fit into the 1:1 Langmuir binding model using Biacore Evaluation Software to calculate an association rate constant ka (L/mol/s) and a dissociation rate constant kd (1/s). From these values, the dissociation constant KD (mol/L) was calculated.
Binder,relative mFcγRII-binding activity (mIgG1 = 1),Kd [nM]
B1,53.7,
B2,106,
B3,65.8,
B4,40.5,
B5,78.1,
B6,9.2,
B7,38.8,
B8,40.1,
B9,172,
B10,93.5,
B11,281,0.747
B12,73.4,
B13,127,
B14,197,
B15,125,
B16,114,
B17,277,0.757
B18,159,
B19,221,0.952
B20,268,0.782
B21,42.2,
B22,50,
B23,152,
B24,268,0.784

# Biological target: T2, mouse FcγRIII extracellular domain with C-terminal His tag (mouse, UniProt P08508 31-215)
# T2 construct: Made on the basis of NCBI NP-034318.2; also called mFcγRIII; mFcgRIII
# T2 chain: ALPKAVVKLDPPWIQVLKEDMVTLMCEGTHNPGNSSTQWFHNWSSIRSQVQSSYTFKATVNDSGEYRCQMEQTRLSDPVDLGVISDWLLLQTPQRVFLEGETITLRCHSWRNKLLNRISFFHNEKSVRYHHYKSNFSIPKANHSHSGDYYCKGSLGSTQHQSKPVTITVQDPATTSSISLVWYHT
# Experiment: SPR Biacore T200
# Protocol: as §1, §2
Binder,relative mFcγRIII-binding activity (mIgG1 = 1),Kd [nM]
B1,4.5,
B2,5.4,
B3,4.2,
B4,3.9,
B5,4.2,
B6,1.3,
B7,3.8,
B8,4,
B9,9.3,
B10,5.7,
B11,10.9,25.9
B12,4.6,
B13,6,
B14,11.6,
B15,6.3,
B16,4.1,
B17,10.8,26.2
B18,6.2,
B19,9.9,28.6
B20,11.5,24.6
B21,2.6,
B22,3.6,
B23,7.9,
B24,14.5,19.5

# Biological target: T1, mouse FcγRII extracellular domain with …
# Experiment: SPR Biacore T200; KD mFcγRIII / KD mFcγRII
# Protocol: as §1, §2
Binder,relative I/A (mFcγRII selectivity) (mIgG1 = 1),I/A (mFcγRII selectivity)
B1,12,
B2,19.6,
B3,15.7,
B4,10.5,
B5,18.7,
B6,7.3,
B7,10.1,
B8,10.1,
B9,18.6,
B10,16.5,
B11,25.9,34.7
B12,16,
B13,21.3,
B14,17,
B15,19.8,
B16,27.7,
B17,25.9,34.6
B18,25.6,
B19,22.4,30
B20,23.4,31.4
B21,16.5,
B22,14.1,
B23,19.2,
B24,18.6,24.9
